The values that follow come from publication doi:10.1101/2022.06.15.496229 (bioRxiv, 2022).

Usually stoichiometry N stands for a count of units in the complex or per binding partner.

The labels stand for the following.
B1: CDC42 (residues 1-191) (natural protein)
chain: not shown
B2: DHR2 domain of human DOCK10 (DOCK10^DHR2, residues 1695-2151) (domain or fragment)
chain: TPELRRTWLESMAKIHARNGDLSEAAMCYIHIAALIAEYLKRKGYWKVEKICTASLLSEDTHPCDSNSLLTTPSGGSMFSMGWPAFLSITPNIKEEGAMKEDSGMQDTPYNENILVEQLYMCVEFLWKSERYELIADVNKPIIAVFEKQRDFKKLSDLYYDIHRSYLKVAEVVNSEKRLFGRYYRVAFYGQGFFEEEEGKEYIYKEPKLTGLSEISQRLLKLYADKFGADNVKIIQDSNKVNPKDLDPKYAYIQVTYVTPFFEEKEIEDRKTDFEMHHNINRFVFETPFTLSGKKHGGVAEQCKRRTILTTSHLFPYVKKRIQVISQSSTELNPIEVAIDEMSKKVSELNQLCTMEEVDMIRLQLKLQGSVSVKVNAGPMAYARAFLEETNAKKYPDNQVKLLKEIFRQFADACGQALDVNERLIKEDQLEYQEELRSHYKDMLSELSTVMNEQITG

Data set [1] deals with B2. Put plainly: crystal structure.
The target in data set [2] is B2. Put plainly: ITC.
The data set “crystal structure” concerns the molecule itself. Put plainly: crystal structure.

With B1, the “stoichiometry N” value in data set [1] worked out at 1 DOCK10^DHR2 per CDC42. The same molecule had a dH in data set [2] of 2.034 ± 0.0143 kcal/mol.

Turning to B2, the binding result in “crystal structure” was “binds”.
